In article PMC4958246:

Target: polymerized rabbit skeletal muscle actin (F-actin) (rabbit) (UniProt P68135)
Test: co-sedimentation; proteins incubated with polymerized rabbit skeletal actin (40 µl of a 1-mg/ml stock; 50 mM KCl, 2 mM MgCl2, 1 mM ATP); WD0830 at 40 ng/ml final; centrifuged at 14,000 x g 1 h 24°C, then 150,000 x g 1.5 h 24°C; supernatants and pellets on silver-stained SDS-PAGE, densitometry with ImageJ

Wolbachia pipientis wMel protein WD0830 (Wolbachia actin-localizing effector 1) (natural protein)
percent of the protein in the pellet with actin: 24%
